This experiment has as its target T1, purified TRIB2 protein (ab186094, Abcam) (Homo sapiens (Human), UniProt Q92519).
T1 chain: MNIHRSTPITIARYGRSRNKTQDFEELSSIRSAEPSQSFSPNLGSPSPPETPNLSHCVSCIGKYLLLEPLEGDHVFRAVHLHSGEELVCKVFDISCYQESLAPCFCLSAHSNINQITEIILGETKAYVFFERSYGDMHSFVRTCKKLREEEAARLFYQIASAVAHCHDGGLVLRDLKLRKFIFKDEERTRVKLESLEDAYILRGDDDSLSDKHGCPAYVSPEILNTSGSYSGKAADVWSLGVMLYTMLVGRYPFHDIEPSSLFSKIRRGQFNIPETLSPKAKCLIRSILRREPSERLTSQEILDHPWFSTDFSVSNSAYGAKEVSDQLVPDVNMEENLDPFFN
Description: in vitro reciprocal co-IP.

B1: purified PCBP2 protein (H00005094-P01, Abnova) (protein)
chain: MDTGVIEGGLNVTLTIRLLMHGKEVGSIIGKKGESVKKMREESGARINISEGNCPERIITLAGPTNAIFKAFAMIIDKLEEDISSSMTNSTAASRPPVTLRLVVPASQCGSLIGKGGCKIKEIRESTGAQVQVAGDMLPNSTERAITIAGIPQSIIECVKQICVVMLETLSQSPPKGVTIPYRPKPSSSPVIFAGGQDRYSTGSDSASFPHTTPSMCLNPDLEGPPLEAYTIQGQYAIPQPDLTKLHQLAMQQSHFPMTHGNTGFSGIESSSPEVKGYWGLDASAQTTSHELTIPNDLIGCIIGRQGAKINEIRQMSGAQIKIANPVEGSTDRQVTITGSAASISLAQYLINVRLSSETGGMGSS
For the molecule B1, the binding result is reported as “binds”.

Values taken from PMC7791120 (2021).
